From the Human Domainome abundance scans (Beltran et al. 2025)

B1: Poly(rC)-binding protein 1, residues 278 to 350; numbered along this chain, Q15365 (parent)
chain: TQTTHELTIPNNLIGCIIGRQGANINEIRQMSGAQIKIANPVEGSSGRQVTITGSAASISLAQYLINARLSSE
B2: Membrane-associated guanylate kinase, WW and PDZ domain-containing protein 2, residues 296 to 340; numbered along this chain, Q86UL8 (parent)
chain: EDNEEPDPLPDNWEMAYTEKGEVYFIDHNTKTTSWLDPRLAKKAK

Variants of: B1
Assay: abundance fitness (aPCA) (normalised: wild type 0, dead -1); higher = more abundant; growth selection in yeast, the domain comes from the species named
Details: Homo sapiens

Abundance fitness, by site and new letter:
I66: G -0.594; H 0.299; L -0.076; M -0.094; P -0.459; Q -1.16; R -0.996; S -0.721; V -0.285; W -1.2
N67: A -0.152; C -0.193; D 0.066; E -0.082; F 0.034; G -0.082; H -0.146; I -0.194; K -0.137; L -0.18; M -0.135; P -0.782; Q -0.32; R -0.147; S -0.019; T -0.148; V -0.504; W -0.208; Y 0.002
A68: C 0.271; E 0.21; F -0.459; G -0.122; H 0.188; I -0.296; L -0.206; M -0.032; N 0.163; Q 0.14; R -0.001; S 0.048; V -0.185; W -0.581
R69: A -0.067; C -0.344; E -0.371; F 0.355; G -0.626; H -0.405; I -0.258; K 0.119; L -0.328; M -0.414; P -0.701; Q -0.016; S -0.081; T -0.079; V -0.479; W -0.596
L70: I -0.217; K -0.378; M -0.228; N -0.465; P -0.499; R -0.53; S -0.614; V -0.05; W -0.521
S71: A -0.037; D -0.044; F -0.21; G -0.062; H -0.371; I -0.434; K -0.03; L -0.184; M 0.105; P 0.024; Q -0.194; R -0.056; T -0.092; V -0.14; W -0.195; Y -0.258
S72: A -0.039; C -0.052; D -0.107; E 0.222; G -0.031; H -0.07; I -0.448; K -0.072; L -0.114; M -0.058; N 0.161; P -0.562; Q -0.401; R 0.123; T 0.222; V -0.072; Y -0.152
E73: A 0.078; C -0.14; D 0.212; F 0.315; G -0.016; L -0.004; M 0.245; P -0.161; R -0.019; S 0.302; T -0.03; V 0.182; W -0.325

Variants of: B2
Assay: as above
Details: Homo sapiens

Abundance fitness of substitutions, site by site:
E1: G 0.009; H -0.109; I -1.23; K 0.058; L -0.023; M -0.067; P 0; R 0.128; S -0.154; V 0.035; Y 0.094
D2: A 0.125; C 0.256; E -0.131; K 0.116; L 0.072; N 0.072; P -0.01; Q 0.08; R 0.05; S 0.068; V 0.074; W -0.029; Y 0.063
N3: A -0.099; C -0.031; D -0.258; E -0.173; F -0.029; G -0.081; H 0.058; L 0.009; M 0.083; P -0.109; Q 0.055; R 0.157; S 0.021; V -0.042; W 0.059; Y 0.037
E4: A 0.016; C -0.005; G 0.1; L 0.03; P 0.138; Q 0.306; R 0.109; S 0.078; V 0.027
P6: A -0.001; C -0.081; D -0.266; E -0.138; G -0.004; H 0.091; I -0.088; L 0.014; N -0.025; R 0.029; S 0.003; V 0.034; W 0.043; Y -0.017
D7: A 0.185; E -0.008; G 0.104; L 0.04; Q 0.054; R 0.044; S 0.04; V 0.134; W 0.01
P8: A -0.014; D -0.121; E -0.069; G -0.03; H -0.105; I -0.156; L 0.021; M 0.019; R 0.052; S -0.056; T -0.035; Y -0.228
L9: S -0.453
P10: A -0.528; C -0.654; D -0.341; E -0.376; F -0.615; G -0.436; H -0.614; I -0.637; K -0.498; L -0.449; M -0.166; N -0.465; Q -0.469; R -0.532; S -0.47; T -0.468; V -0.54; W -0.469; Y -0.508
D11: A 0.007; E 0.033; G -0.096; H -0.029; K -0.04; L 0.073; M -0.015; N -0.011; P -0.099; Q 0.091; R 0.032; S 0.421; T 0.042; V -0.064; W -0.074
N12: C -0.163; D -0.136; E -0.303; G 0.088; M -0.292; R -0.044; S -0.199; T -0.224; V -0.703; W -0.271
W13: G -0.787; L -0.385; R -0.642; S -0.556; V -0.32
E14: A -0.47; D -0.097; F -0.705; L -0.561; N -0.241; Q 0.032; R -0.415; S -0.083; T -0.162; V -0.264; W -1.04
M15: C -0.127; G -0.459; H -0.428; L -0.026; P -0.308; R -0.106; V -0.121; W -0.198
A16: C -0.274; D -0.398; E -0.239; F -0.709; G -0.109; I -0.529; K -0.119; L -0.337; M -0.254; R -0.127; S 0.002; T -0.335; V -0.271; W -0.598; Y -0.432
Y17: A -0.025; C 0.004; D -0.355; E -0.42; F -0.029; G -0.349; H 0.066; I 0.017; K -0.048; L 0.024; N -0.042; P -0.828; R 0.049; S -0.03; T -0.039; W 0.021
T18: A -0.308; C -0.454; E -0.574; F -0.953; G -0.354; I -0.997; K -0.476; L -0.514; N -0.382; P -1.08; Q -0.849; R -0.91; S -0.048; W -0.725; Y -0.93
E19: A 0.054; D -0.025; G -0.107; I -0.117; K -0.031; L -0.091; N 0.031; P -0.013; Q 0.02; R -0.104; S -0.021; T 0.018; V -0.079; W -0.319
K20: A -0.02; C -0.009; D -0.022; E 0.027; G -0.011; I -0.12; L -0.078
